According to patent US20170131282A1:

Key:
Test in all cases: cell-based or functional assay
[1] = target: mouse chemokine CCL7 secreted in conditioned media of mouse adipocytes / adipose tissue (mouse) (UniProt Q03366)
[2] = target: human chemokine receptor CCR3 on human prostate tumor cells (PC-3, Du-145) (human) (UniProt P51677)
[3] = target: mouse chemokine receptor CCR3 (NM_009914) on mouse prostate tumor cells (TRAMP-C1P3, RM1-BM) (mouse) (UniProt P51678)
UniProt P51678, sequence (P51678 whole entry): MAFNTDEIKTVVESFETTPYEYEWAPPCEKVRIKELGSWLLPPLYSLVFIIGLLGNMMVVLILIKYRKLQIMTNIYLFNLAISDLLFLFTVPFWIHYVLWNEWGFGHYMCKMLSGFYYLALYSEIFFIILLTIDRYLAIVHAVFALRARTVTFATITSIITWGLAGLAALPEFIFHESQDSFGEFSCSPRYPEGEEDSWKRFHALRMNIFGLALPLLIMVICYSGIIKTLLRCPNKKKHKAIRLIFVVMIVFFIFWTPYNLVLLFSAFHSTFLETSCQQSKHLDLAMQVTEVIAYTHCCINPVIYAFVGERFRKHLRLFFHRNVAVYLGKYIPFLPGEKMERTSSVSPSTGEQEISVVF

UniProt Q03366, sequence (Q03366 24-97): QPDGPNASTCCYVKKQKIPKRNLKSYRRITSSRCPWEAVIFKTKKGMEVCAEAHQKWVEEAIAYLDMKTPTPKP
UniProt P51677, sequence (P51677 whole entry): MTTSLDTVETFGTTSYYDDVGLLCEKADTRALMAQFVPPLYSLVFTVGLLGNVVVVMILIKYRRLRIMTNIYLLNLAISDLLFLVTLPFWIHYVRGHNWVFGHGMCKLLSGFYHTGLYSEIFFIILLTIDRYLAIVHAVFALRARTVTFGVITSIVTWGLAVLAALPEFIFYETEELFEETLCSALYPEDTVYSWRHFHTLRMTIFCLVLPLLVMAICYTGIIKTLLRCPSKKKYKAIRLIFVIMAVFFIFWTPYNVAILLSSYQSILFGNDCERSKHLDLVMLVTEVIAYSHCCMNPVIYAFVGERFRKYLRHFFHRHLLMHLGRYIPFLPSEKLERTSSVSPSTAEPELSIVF

| inhibition of migration of PC-3 and Du-145 cells against CM-Ad (Boyden chamber) [1] [% inhibition] | inhibition of migration of PC-3 cells against CM of HFD AT-mu-PG (obese mice) [1] [% inhibition] | inhibition of migration of PC-3 cells against CM of ND AT-mu-PG (normal-weight mice) [1] [% inhibition] | migration of PC-3 and Du-145 prostate cells (Boyden chamber), dose from which the effect is significant [2] [ng/mL] | chemotaxis of TRAMP-C1P3 cells (Boyden chamber), dose from which it is seen [3] [ng/mL] | migration of RM1-BM cells (Boyden chamber) [3] [ng/mL] | Substance |
| --- | --- | --- | --- | --- | --- | --- |
| 50 | 60 | 25 |  |  |  | blocking antibody targeted against CCL7 (AF-456-NA, R&D System) |
|  |  |  | > 50 | > 50 | 100 | human chemokine CCL7 (from UniProt P80098 24-99) (ligand) |
